Assay [1] concerns the target T1, FcγRIa extracellular domain with C-terminal His tag (human, UniProt P12314 16-292).
T1 construct: extracellular domain; Expressed in FreeStyle293 cells; used as analyte in Biacore; also called FcgRI; 1a; not shown: His tag at the C terminus
Briefly: SPR (Biacore), captured antibody, FcγRIa analyte; relative to GpH7-B3/GpL16-k0 = 100.

Assay [2] concerns the target T1, FcγRIa extracellular domain with …. In words: SPR (Biacore), captured antibody, FcγRIa analyte; relative to GpH7-A5/GpH7-B3/GpL16-k0 = 100. On the technique in general: SPR reads the build-up and loss of mass on a sensor chip optically.

T1 sequence (P12314 16-292): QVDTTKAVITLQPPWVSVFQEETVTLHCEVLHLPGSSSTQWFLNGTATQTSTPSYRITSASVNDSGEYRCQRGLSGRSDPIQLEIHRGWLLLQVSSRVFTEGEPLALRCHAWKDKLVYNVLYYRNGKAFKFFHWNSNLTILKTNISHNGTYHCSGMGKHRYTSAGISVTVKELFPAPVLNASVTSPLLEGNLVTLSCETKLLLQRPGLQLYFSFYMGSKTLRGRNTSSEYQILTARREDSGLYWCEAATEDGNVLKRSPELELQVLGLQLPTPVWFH

B1: GpH7-B3 variant (S337_10E)/GpL16-k0 (antibody, human IgG1, kappa)
heavy: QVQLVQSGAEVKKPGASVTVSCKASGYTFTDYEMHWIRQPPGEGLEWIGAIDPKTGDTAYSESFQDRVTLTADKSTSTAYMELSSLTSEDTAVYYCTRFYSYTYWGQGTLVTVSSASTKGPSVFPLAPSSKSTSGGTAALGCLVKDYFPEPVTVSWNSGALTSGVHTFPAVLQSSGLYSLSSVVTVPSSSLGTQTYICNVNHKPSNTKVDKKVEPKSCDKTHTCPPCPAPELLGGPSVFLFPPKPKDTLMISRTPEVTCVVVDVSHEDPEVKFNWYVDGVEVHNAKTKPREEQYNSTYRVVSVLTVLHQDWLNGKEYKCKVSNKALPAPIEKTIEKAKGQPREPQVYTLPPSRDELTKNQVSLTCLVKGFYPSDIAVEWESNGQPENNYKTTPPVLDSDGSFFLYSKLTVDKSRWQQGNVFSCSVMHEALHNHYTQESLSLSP
light: DIVMTQSPLSLPVTPGEPASISCQASESLVHSNRNTYLHWYLQKPGQSPQLLIYKVSNRFSGVPDRFSGSGSGTDFTLKISRVEAEDVGVYYCSQNTHVPPTFGQGTKVEIERTVAAPSVFIFPPSDEQLKSGTASVVCLLNNFYPREAKVQWKVDNALQSGNSQESVTEQDSKDSTYSLSSTLTLSKADYEKHKVYACEVTHQGLSSPVTKSFNRGEC
notes: Homodimerized; both H chains altered; also called Ho Ab S337_10E
On to B1, for which the Ho/Con_1a in assay [1] was 104 % of control.

B2: GpH7-A5/GpH7-B3 variant (T335_04F)/GpL16-k0 (antibody, human IgG1, kappa)
heavy 1: not shown
heavy 2: not shown
light: B1 light
notes: Heterodimerized; only the B3 chain altered; also called He Ab T335_04F
With B2, the He/Con_1a in assay [2] was 105 % of control.

B3: GpH7-B3 variant (Y296_12R)/GpL16-k0 (antibody, human IgG1, kappa)
heavy: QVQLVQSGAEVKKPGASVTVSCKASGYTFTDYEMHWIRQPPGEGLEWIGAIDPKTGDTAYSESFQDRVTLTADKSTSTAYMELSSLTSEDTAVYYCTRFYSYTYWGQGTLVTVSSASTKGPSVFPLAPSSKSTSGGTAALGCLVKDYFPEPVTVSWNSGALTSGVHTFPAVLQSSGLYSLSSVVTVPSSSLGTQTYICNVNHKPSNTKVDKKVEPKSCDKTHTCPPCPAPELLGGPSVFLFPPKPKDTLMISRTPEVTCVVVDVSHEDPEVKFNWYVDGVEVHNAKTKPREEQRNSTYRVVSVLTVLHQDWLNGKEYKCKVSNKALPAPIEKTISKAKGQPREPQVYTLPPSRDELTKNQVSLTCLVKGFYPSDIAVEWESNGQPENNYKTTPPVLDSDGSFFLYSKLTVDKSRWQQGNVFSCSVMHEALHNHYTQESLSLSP
light: B1 light
notes: Homodimerized; both H chains altered; also called Ho Ab Y296_12R
Consider B3, for which the Ho/Con_1a in assay [1] is 103 % of control.

B4: GpH7-B3 variant (Y296_06M)/GpL16-k0 (antibody, human IgG1, kappa)
heavy: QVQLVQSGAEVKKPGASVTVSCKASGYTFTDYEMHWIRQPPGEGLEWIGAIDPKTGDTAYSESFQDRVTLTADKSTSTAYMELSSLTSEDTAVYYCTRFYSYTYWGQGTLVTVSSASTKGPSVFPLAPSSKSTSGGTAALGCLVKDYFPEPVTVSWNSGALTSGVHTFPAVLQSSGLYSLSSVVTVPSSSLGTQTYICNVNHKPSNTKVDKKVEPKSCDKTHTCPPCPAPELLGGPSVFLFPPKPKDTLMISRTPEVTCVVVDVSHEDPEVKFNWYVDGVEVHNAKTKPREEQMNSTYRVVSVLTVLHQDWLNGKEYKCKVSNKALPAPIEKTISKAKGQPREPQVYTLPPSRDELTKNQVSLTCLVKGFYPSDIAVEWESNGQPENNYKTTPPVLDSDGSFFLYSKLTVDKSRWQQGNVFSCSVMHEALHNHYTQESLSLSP
light: B1 light
notes: Homodimerized; both H chains altered; also called Ho Ab Y296_06M
Take B4: the Ho/Con_1a in assay [1] is 104 % of control.

B5: GpH7-A5/GpH7-B3 variant (S337_08L)/GpL16-k0 (antibody, human IgG1, kappa)
heavy 1: not shown
heavy 2: not shown
light: B1 light
notes: Heterodimerized; only the B3 chain altered; also called He Ab S337_08L
Turning to B5, the He/Con_1a in assay [2] was 105 % of control.

B6: GpH7-B3 variant (T335_11K)/GpL16-k0 (antibody, human IgG1, kappa)
heavy: not shown
light: B1 light
notes: Homodimerized; both H chains altered; also called Ho Ab T335_11K
Consider B6, for which, in assay [1], the Ho/Con_1a is 103 % of control.

B7: GpH7-A5/GpH7-B3 variant (A330_04F)/GpL16-k0 (antibody, human IgG1, kappa)
heavy 1: not shown
heavy 2: not shown
light: B1 light
notes: Heterodimerized; only the B3 chain altered; also called He Ab A330_04F
In the case of B7, the He/Con_1a in assay [2] is 106 % of control.

B8: GpH7-B3 variant (T335_07I)/GpL16-k0 (antibody, human IgG1, kappa)
heavy: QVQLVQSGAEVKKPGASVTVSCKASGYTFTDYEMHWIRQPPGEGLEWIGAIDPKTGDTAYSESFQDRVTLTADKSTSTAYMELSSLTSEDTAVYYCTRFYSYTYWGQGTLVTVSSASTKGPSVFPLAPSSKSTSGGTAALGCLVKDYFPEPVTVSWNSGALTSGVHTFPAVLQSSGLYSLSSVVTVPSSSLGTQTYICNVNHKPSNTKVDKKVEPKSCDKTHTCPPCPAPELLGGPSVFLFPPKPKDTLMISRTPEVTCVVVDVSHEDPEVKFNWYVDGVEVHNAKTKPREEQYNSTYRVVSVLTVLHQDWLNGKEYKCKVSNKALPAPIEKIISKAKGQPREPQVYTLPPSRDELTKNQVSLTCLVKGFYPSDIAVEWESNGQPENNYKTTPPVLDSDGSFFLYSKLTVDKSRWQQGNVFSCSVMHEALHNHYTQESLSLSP
light: B1 light
notes: Homodimerized; both H chains altered; also called Ho Ab T335_07I
For the molecule B8, the Ho/Con_1a in assay [1] was 105 % of control.

B9: GpH7-B3 variant (T335_06M)/GpL16-k0 (antibody, human IgG1, kappa)
heavy: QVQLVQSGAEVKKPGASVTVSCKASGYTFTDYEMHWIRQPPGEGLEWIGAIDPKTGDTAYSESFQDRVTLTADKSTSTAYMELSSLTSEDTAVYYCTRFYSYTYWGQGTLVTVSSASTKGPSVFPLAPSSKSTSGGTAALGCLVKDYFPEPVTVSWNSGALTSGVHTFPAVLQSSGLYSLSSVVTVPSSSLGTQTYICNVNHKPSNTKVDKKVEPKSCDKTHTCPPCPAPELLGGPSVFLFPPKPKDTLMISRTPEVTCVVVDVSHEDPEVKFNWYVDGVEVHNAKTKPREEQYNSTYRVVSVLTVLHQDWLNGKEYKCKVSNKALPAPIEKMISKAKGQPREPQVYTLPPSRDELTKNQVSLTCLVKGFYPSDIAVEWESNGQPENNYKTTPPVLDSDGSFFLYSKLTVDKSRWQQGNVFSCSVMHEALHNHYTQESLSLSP
light: B1 light
notes: Homodimerized; both H chains altered; also called Ho Ab T335_06M
As to B9, in assay [1], the Ho/Con_1a is 106 % of control.

B10: GpH7-A5/GpH7-B3 variant (H268_18N)/GpL16-k0 (antibody, human IgG1, kappa)
heavy 1: not shown
heavy 2: not shown
light: B1 light
notes: Heterodimerized; only the B3 chain altered; also called He Ab H268_18N
As for B10, in assay [2], the He/Con_1a was 108 % of control.

B11: GpH7-B3 variant (T335_12R)/GpL16-k0 (antibody, human IgG1, kappa)
heavy: not shown
light: B1 light
notes: Homodimerized; both H chains altered; also called Ho Ab T335_12R
Take B11: in assay [1], the Ho/Con_1a was 106 % of control.

B12: GpH7-A5/GpH7-B3 variant (I336_11K)/GpL16-k0 (antibody, human IgG1, kappa)
heavy 1: not shown
heavy 2: not shown
light: B1 light
notes: Heterodimerized; only the B3 chain altered; also called He Ab I336_11K
In the case of B12, the He/Con_1a in assay [2] was 105 % of control.

B13: GpH7-A5/GpH7-B3 variant (S337_10E)/GpL16-k0 (antibody, human IgG1, kappa)
heavy 1: not shown
heavy 2: not shown
light: B1 light
notes: Heterodimerized; only the B3 chain altered; also called He Ab S337_10E
As to B13, in assay [2], the He/Con_1a is 106 % of control.

B14: GpH7-B3 variant (S337_19Q)/GpL16-k0 (antibody, human IgG1, kappa)
heavy: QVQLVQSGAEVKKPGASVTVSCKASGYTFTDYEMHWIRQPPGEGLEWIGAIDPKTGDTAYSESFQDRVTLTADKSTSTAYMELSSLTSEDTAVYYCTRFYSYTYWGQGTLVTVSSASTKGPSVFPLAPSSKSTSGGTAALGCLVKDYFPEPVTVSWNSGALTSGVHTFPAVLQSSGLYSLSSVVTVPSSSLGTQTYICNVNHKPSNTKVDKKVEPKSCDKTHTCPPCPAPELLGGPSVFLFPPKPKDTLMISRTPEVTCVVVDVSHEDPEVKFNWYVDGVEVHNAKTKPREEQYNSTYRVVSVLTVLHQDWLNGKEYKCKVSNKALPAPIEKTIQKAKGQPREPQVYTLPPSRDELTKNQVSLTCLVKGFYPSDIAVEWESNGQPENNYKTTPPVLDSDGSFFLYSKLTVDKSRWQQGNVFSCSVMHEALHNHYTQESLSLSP
light: B1 light
notes: Homodimerized; both H chains altered; also called Ho Ab S337_19Q
Take B14: in assay [1], the Ho/Con_1a is 105 % of control.

B15: GpH7-A5/GpH7-B3 variant (I336_14T)/GpL16-k0 (antibody, human IgG1, kappa)
heavy 1: not shown
heavy 2: not shown
light: B1 light
notes: Heterodimerized; only the B3 chain altered; also called He Ab I336_14T
Consider B15, for which the He/Con_1a in assay [2] was 104 % of control.

B16: GpH7-B3 variant (Y300_08L)/GpL16-k0 (antibody, human IgG1, kappa)
heavy: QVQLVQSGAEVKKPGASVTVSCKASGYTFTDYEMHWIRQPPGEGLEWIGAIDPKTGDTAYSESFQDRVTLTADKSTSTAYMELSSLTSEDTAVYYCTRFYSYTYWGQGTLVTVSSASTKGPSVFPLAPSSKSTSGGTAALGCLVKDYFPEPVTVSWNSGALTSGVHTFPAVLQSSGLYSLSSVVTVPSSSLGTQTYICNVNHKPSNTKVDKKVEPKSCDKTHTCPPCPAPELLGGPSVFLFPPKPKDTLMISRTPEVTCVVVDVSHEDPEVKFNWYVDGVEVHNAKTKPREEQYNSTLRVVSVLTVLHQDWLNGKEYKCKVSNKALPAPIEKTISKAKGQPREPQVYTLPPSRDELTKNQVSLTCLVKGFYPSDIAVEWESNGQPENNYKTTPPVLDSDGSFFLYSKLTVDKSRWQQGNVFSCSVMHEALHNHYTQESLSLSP
light: B1 light
notes: Homodimerized; both H chains altered; also called Ho Ab Y300_08L
For the molecule B16, the Ho/Con_1a in assay [1] is 109 % of control.

B17: GpH7-B3 variant (Y300_03V)/GpL16-k0 (antibody, human IgG1, kappa)
heavy: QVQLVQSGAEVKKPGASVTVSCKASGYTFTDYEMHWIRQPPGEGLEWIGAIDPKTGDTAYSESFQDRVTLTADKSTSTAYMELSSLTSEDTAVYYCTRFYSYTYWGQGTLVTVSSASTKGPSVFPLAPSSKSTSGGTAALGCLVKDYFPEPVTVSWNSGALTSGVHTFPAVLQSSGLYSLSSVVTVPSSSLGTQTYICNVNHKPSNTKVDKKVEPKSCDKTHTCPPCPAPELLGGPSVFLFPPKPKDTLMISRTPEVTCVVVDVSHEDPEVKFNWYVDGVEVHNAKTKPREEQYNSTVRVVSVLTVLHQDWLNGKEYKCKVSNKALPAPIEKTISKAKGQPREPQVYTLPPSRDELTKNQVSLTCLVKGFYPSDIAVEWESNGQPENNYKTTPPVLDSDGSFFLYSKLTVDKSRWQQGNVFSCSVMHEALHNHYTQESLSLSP
light: B1 light
notes: Homodimerized; both H chains altered; also called Ho Ab Y300_03V
As for B17, the Ho/Con_1a in assay [1] was 112 % of control.

B18: GpH7-B3 variant (Y300_14T)/GpL16-k0 (antibody, human IgG1, kappa)
heavy: not shown
light: B1 light
notes: Homodimerized; both H chains altered; also called Ho Ab Y300_14T
On to B18, for which the Ho/Con_1a in assay [1] was 110 % of control.

B19: GpH7-A5/GpH7-B3 variant (A330_10E)/GpL16-k0 (antibody, human IgG1, kappa)
heavy 1: not shown
heavy 2: not shown
light: B1 light
notes: Heterodimerized; only the B3 chain altered; also called He Ab A330_10E
For B19, the He/Con_1a in assay [2] was 107 % of control.

B20: GpH7-B3 variant (Y300_19Q)/GpL16-k0 (antibody, human IgG1, kappa)
heavy: not shown
light: B1 light
notes: Homodimerized; both H chains altered; also called Ho Ab Y300_19Q
On to B20, for which the Ho/Con_1a in assay [1] is 110 % of control.

B21: GpH7-A5/GpH7-B3 variant (H268_09D)/GpL16-k0 (antibody, human IgG1, kappa)
heavy 1: not shown
heavy 2: not shown
light: B1 light
notes: Heterodimerized; only the B3 chain altered; also called He Ab H268_09D
Regarding B21, the He/Con_1a in assay [2] is 110 % of control.

B22: GpH7-A5/GpH7-B3 variant (I336_08L)/GpL16-k0 (antibody, human IgG1, kappa)
heavy 1: not shown
heavy 2: not shown
light: B1 light
notes: Heterodimerized; only the B3 chain altered; also called He Ab I336_08L
Take B22: the He/Con_1a in assay [2] was 107 % of control.

B23: GpH7-B3 variant (T335_09D)/GpL16-k0 (antibody, human IgG1, kappa)
heavy: not shown
light: B1 light
notes: Homodimerized; both H chains altered; also called Ho Ab T335_09D
Take B23: the Ho/Con_1a in assay [1] was 107 % of control.

B24: GpH7-A5/GpH7-B3 variant (I336_12R)/GpL16-k0 (antibody, human IgG1, kappa)
heavy 1: not shown
heavy 2: not shown
light: B1 light
notes: Heterodimerized; only the B3 chain altered; also called He Ab I336_12R
On to B24, for which the He/Con_1a in assay [2] is 102 % of control.

B25: GpH7-A5/GpH7-B3 variant (A330_20W)/GpL16-k0 (antibody, human IgG1, kappa)
heavy 1: not shown
heavy 2: not shown
light: B1 light
notes: Heterodimerized; only the B3 chain altered; also called He Ab A330_20W
Take B25: in assay [2], the He/Con_1a is 108 % of control.

B26: GpH7-B3 variant (Y300_02A)/GpL16-k0 (antibody, human IgG1, kappa)
heavy: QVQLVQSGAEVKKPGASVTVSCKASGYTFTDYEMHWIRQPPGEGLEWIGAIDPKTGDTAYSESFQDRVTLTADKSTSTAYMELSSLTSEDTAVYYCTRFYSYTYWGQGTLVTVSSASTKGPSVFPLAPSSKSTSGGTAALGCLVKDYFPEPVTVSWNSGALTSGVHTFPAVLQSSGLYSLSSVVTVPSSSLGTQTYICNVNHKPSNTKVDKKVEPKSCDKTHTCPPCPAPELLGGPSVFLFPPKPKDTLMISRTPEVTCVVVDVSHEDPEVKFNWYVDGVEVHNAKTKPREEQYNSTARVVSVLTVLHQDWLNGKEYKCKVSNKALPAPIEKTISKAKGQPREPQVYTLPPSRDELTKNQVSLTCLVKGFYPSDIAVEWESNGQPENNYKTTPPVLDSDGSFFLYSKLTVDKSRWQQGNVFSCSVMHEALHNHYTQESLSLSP
light: B1 light
notes: Homodimerized; both H chains altered; also called Ho Ab Y300_02A
Turning to B26, in assay [1], the Ho/Con_1a was 110 % of control.

B27: GpH7-B3 variant (Y300_13S)/GpL16-k0 (antibody, human IgG1, kappa)
heavy: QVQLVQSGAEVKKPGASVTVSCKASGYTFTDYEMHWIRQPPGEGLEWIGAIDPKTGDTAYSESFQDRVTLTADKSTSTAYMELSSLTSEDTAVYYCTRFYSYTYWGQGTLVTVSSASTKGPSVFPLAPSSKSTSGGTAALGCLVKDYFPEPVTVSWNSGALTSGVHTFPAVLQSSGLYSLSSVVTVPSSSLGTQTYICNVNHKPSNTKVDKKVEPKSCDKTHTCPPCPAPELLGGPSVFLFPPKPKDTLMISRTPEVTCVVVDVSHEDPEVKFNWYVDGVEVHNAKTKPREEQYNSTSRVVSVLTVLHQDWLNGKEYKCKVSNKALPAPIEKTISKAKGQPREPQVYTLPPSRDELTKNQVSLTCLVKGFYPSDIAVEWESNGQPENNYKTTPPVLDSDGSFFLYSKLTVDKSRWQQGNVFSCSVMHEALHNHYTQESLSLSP
light: B1 light
notes: Homodimerized; both H chains altered; also called Ho Ab Y300_13S
As for B27, the Ho/Con_1a in assay [1] was 110 % of control.

The record behind these values is patent publication US20180155451A1 (published 2018).
